No end group written: not given here.
B1: mouse TRIM75 coiled-coil domain (residues 168-222) (domain or fragment, UniProt Q3UWZ0 168-222, looked up)
chain: VTLREQAEAQRSQLTSECEKLMRFLDQEERAAFSRLEDEEMRLEKRLLDNIAALE
modifications: also: homodimer: interchain disulfide between C185 of two chains
B2: mouse TRIM75 coiled-coil domain with the CCm9A mutation (domain or fragment, UniProt Q3UWZ0 168-222, looked up)
chain: VTLREQAEAAASQATSEAEKAMRAADQEARAAFSRAEDEEMRLEKRLLDNIAALE
B3: truncated mouse TRIM75 protein (136-467) containing the coiled coil and C-terminal domains, N-terminal FLAG tag (domain or fragment, UniProt Q3UWZ0 136-467, looked up)
chain: SLHRKHLQDYSKLLKWEVKEIQGLMSALNKRTVTLREQAEAQRSQLTSECEKLMRFLDQEERAAFSRLEDEEMRLEKRLLDNIAALEHHGSSLRDLLRHLMLTGELSEAKMLSTVKDFYLNCRRQLISPSIFPVQLRRVEYSFPLQYSALQKVIQHFTDNVTLDLKTAHPNLLISKDRTCVTFTKKRQRIPGSSSFTKSPVVLGIPHFNSGRHFWEVQVGKKPKWAIGICKADSSIGERQSPNPWGYWRIVWQGDSFNVSGADPDSRLKAARATSIGVFLDYELGEVSFYGMPEKCHLYTFRDTFSGPVCPYFYIGPQSEPLRLCSATDSEC
B4: full-length mouse TRIM75 with N-terminal FLAG tag (natural protein, UniProt Q3UWZ0 1-467, looked up)
chain: MAHVEVLARLQKETKCPICLDDLTDPVTVECGHNFCRSCIKDFWAGQQATSSCPVCRHQCQHRNLRSNAQLGNMIETAQLLQGMENKRHESSTSCERHNQALTLFCEDDLQLLCDQCVEPESHGRHQVLSITEAASLHRKHLQDYSKLLKWEVKEIQGLMSALNKRTVTLREQAEAQRSQLTSECEKLMRFLDQEERAAFSRLEDEEMRLEKRLLDNIAALEHHGSSLRDLLRHLMLTGELSEAKMLSTVKDFYLNCRRQLISPSIFPVQLRRVEYSFPLQYSALQKVIQHFTDNVTLDLKTAHPNLLISKDRTCVTFTKKRQRIPGSSSFTKSPVVLGIPHFNSGRHFWEVQVGKKPKWAIGICKADSSIGERQSPNPWGYWRIVWQGDSFNVSGADPDSRLKAARATSIGVFLDYELGEVSFYGMPEKCHLYTFRDTFSGPVCPYFYIGPQSEPLRLCSATDSEC

How the values were obtained:
[1] = target: the molecule itself; assay: crystal structure
[2] = target: the molecule itself; assay: cross-linking
[3] = target: the molecule itself; assay: cross-linking; remark: listed apart in the source

Protein	stoichiometry N [3]	also measured
B1	–	stoichiometry N [1]: 4
B2	–	stoichiometry N [2]: 2
B3	4	–
B4	4	–

— paper PMC9471973 (Computational and Structural Biotechnology Journal, 2022)
